Ends that are not written are not given here.
Key:
Snu17p (residues 1–113) [1] = target: T1, Snu17p (residues 1–113) (Saccharomyces cerevisiae, UniProt P40565); experiment: NMR titration (1H,15N correlation spectra) of 15N-labeled Snu17p (residues 1–113) with Bud13p peptides; format: binding; conditions: 298 K, 20 mM sodium phosphate, pH 6.3, 25 mM NaCl
T1 construct: The concentration of Snu17p (residues 1–113) in the cell (1440 μl) varied between 30 and 70 μM; His6 (N, cleaved yes); GST (N, cleaved yes); made in house; host or cells: Escherichia coli BL21(DE3) pLysS
T1 sequence (P40565 1-113): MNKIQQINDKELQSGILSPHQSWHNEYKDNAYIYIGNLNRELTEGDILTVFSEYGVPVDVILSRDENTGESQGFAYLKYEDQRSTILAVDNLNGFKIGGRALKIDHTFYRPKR
Protocol: (§1) Recombinant proteins were purified by sonicating the harvested cell pellet in 25 ml of lysis buffer (20 mM Tris, pH 7.5, 300 mM NaCl, 10 mM imidazole, 1 mM DTT, and 0.02% NaN3), also including protease inhibitors, RNase, lysozyme, and 0.2% IGEPAL. After high speed centrifugation (20,000 × g, 30 min) and filtering, each supernatant was applied to Ni-NTA-agarose resin (Qiagen). Several rounds of washing were performed with: lysis buffer including 0.2% IGEPAL, lysis buffer, lysis buffer with high salt concentration (1 M NaCl), and lysis buffer with high imidazole concentration (30 mM imidazole). Finally, each protein was eluted by applying 10 ml of a buffer containing 20 mM Tris, pH 7.5, 300 mM NaCl, 330 mM imidazole, 1 mM DTT, and 0.02% NaN3. Tobacco etch virus protease was added to each sample and incubated overnight at 4 °C. To remove the cleaved GST tag each sample was passed over a second Ni-NTA column. A second purification step included size exclusion chromatography (HiLoad, Superdex 75 16/60, GE Healthcare). In this step, proteins were buffer exchanged into the NMR buffer (20 mM sodium phosphate, pH 6.3, 25 mM NaCl, and 2 mM fresh DTT or Tris(2-carboxyethyl)phosphine, 0.02% NaN3). Stoichiometric hybrid-labeled samples were prepared by mixing excess Bud13p with Snu17p and performing another step of size exclusion chromatography (HiLoad, Superdex 75 16/60, GE Healthcare). Two shorter peptides of Bud13p (residues 221–242 or residues 225–238) were purchased from Peptide Specialty Laboratories (Heidelberg, Germany), and extensively dialyzed before binding experiments.
NMR spectra were recorded at 298 K on an AVIII800 Bruker NMR spectrometer equipped with a cryogenic triple resonance gradient probe. Spectra were processed using NMRPipe ([21]). Protein backbone and side chain assignments were obtained from standard triple resonance experiments ([22]). NOE distance restraints were obtained from ^15N- and ^13C-edited three-dimensional NOESY spectra (mixing time 70 ms) where only Snu17p or Bud13p proteins were labeled. Intermolecular NOE restraints were derived from three-dimensional ^15N,^13C-filtered, ^13C-edited NOESY spectra (mixing time 70 ms) ([22], [23]). Stereospecific assignments of pro-chiral methyl groups of valine and leucine were obtained using 10% ^13C-labeled protein samples ([24]).
To characterize the unexpected molecular features of the Snu17p-Bud13p interaction we proceeded with biophysical and structural characterization of the binary complex (Fig. 3). […] We tested binding to a series of Bud13p fragments to identify the minimum binding region in Bud13p (Fig. 3, a and b). NMR titrations confirmed binding to a Bud13p peptide encompassing residues 201–266 as has been shown previously ([20]).

[2] = Precipitation / solubility of the sample on addition of Bud13p peptide to 15N-labeled Snu17p; format: physicochemical; conditions: addition to recombinant 15N-labeled Snu17p, NMR titration
Protocol: as §1, with “Two shorter peptides of Bud13p (residues 221–242 or residues 225–238) were purchased from Peptide Specialty Laboratories (Heidelberg, Germany), and extensively dialyzed before binding experiments.” left out

Snu17p (residues 25–113) = experiment: NMR chemical shift perturbation with shorter Snu17p protein (residues 25–113); format: binding, Saccharomyces cerevisiae; conditions: shorter Snu17p protein (residues 25–113) compared with residues 1–113; data not shown
Protocol: as §1, with “Stoichiometric hybrid-labeled samples were prepared by mixing excess Bud13p with Snu17p and performing another step of size exclusion chromatography (HiLoad, Superdex 75 16/60, GE Healthcare). Two shorter peptides of Bud13p (residues 221–242 or residues 225–238) were purchased from Peptide Specialty Laboratories (Heidelberg, Germany), and extensively dialyzed before binding experiments.” left out
(§2) NMR spectra were recorded at 298 K on an AVIII800 Bruker NMR spectrometer equipped with a cryogenic triple resonance gradient probe. […]

Snu17p = experiment: NMR of 15N-labeled Bud13p in complex with unlabeled Snu17p; format: binding, Saccharomyces cerevisiae; conditions: 15N-labeled Bud13p (residues 222–256), 298 K
Protocol: as §1, with “Stoichiometric hybrid-labeled samples were prepared by mixing excess Bud13p with Snu17p and performing another step of size exclusion chromatography (HiLoad, Superdex 75 16/60, GE Healthcare). Two shorter peptides of Bud13p (residues 221–242 or residues 225–238) were purchased from Peptide Specialty Laboratories (Heidelberg, Germany), and extensively dialyzed before binding experiments.” left out
as §2

Snu17p (residues 1–113) [3] = target: T1, Snu17p (residues 1–113); experiment: Isothermal titration calorimetry (ITC) of Bud13p ligands binding to Snu17p; conditions: 25 °C, NMR buffer pH 6.3
Protocol: as §1, with “Two shorter peptides of Bud13p (residues 221–242 or residues 225–238) were purchased from Peptide Specialty Laboratories (Heidelberg, Germany), and extensively dialyzed before binding experiments.” left out

## Bud13p^201-266: Bud13p residues 201–266, recombinant from E. coli, GST tag cleaved
Snu17p (residues 1–113) [1]
  NMR chemical shift perturbations (CSPs) of Snu17p: extensive chemical shift perturbations (CSPs)
[2]
  precipitation / solubility of the sample: led to precipitation of the sample

## Bud13p^222-256: Bud13p residues 222–256, recombinant from E. coli; optimal Bud13p peptide, minimum interacting region
Snu17p (residues 1–113) [1]
  NMR chemical shift perturbations (CSPs) of Snu17p: large chemical shift changes, induced by Bud13p binding, map on the two helices plus adjacent loop regions of the Snu17p RRM-fold
Snu17p (residues 25–113)
  NMR CSPs induced by Bud13p binding: Virtually identical NMR CSPs
[2]
  precipitation / solubility of the sample: proteins remained in solution
Snu17p
  chemical shift changes in Bud13p spectra on binding to Snu17p: extensive chemical shift changes in Bud13p spectra

## Bud13p^225-238: Bud13p residues 225–238, purchased from Peptide Specialty Laboratories (Heidelberg) (AIMPGSRWDGVHRS)
Snu17p (residues 1–113) [1]
  NMR chemical shift perturbations (CSPs) of Snu17p: hardly induced any NMR spectral changes for Snu17p
Snu17p (residues 1–113) [3]
  binding affinity (in words): binds very weakly

## ENRFAIMPGSRWDGVHRSNGFE [Bud13p^221-242]
Snu17p (residues 1–113) [1]
  NMR chemical shift perturbations (CSPs) of Snu17p: affected the same Snu17p residues but to a lesser extent compared with the longer ones
